# B1: RA-ssDNA1 (ssDNA)
# DNA: TAGGCTCTGCTAAGGAAGCGTGGGGTCTGTCTAAGTTGGA
# B2: dsDNA annealed from RA-ssDNA1 (dsDNA)
# DNA 1: B1 DNA
# DNA 2: TCCAACTTAGACAGACCCCACGCTTCCTTAGCAGAGCCTA
# B3: RA-ssDNA2 (ssDNA)
# DNA: AAAAACTACGGAACTGACTAAAGGCAGAAAAACTAAACGG
# Biological target: T1, DprA (DprARa) (Riemerella anatipestifer ATCC11845, UniProt E4TBU2 1-367)
# T1 sequence: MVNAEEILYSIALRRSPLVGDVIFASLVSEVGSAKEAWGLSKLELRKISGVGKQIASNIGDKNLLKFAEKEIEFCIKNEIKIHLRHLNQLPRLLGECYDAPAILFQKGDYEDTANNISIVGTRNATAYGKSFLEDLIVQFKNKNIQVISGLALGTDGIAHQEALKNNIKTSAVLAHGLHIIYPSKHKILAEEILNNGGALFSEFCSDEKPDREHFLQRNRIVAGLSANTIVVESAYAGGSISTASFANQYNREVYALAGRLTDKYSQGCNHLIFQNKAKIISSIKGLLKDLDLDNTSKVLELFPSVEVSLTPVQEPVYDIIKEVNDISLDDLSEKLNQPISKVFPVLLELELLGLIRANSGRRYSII
# Assay: EMSA; 1-20 uM DprA; 25 mM HEPES pH 7.0, 150 mM NaCl, 10% glycerol, 1 mM DTT, 0.05% IGEPAL, 30 min at 30 C; 8% native PAGE in 0.5x TBE on ice
# Conditions: protein: recombinant, tags: C-terminal His6, chain copies: 2, label: biotin
Binder,binding result,binding result (blunt)
B1,binds,
B2,,binds
B3,binds,

# — PMC6533540, “DprA Is Essential for Natural Competence in Riemerella anatipestifer and Has a Conserved Evolutionary Mechanism”
